Laboratory results reported in patent US20240116999A1 (TRUSTEES OF INDIANA UNIVERSITY, published 2024).
Bridge positions count the residues as written; N and C are the ends. Square brackets hold non-standard residues; d marks the D form. Ends that are not written are not given here. Orn = NCCC[C@H](N)C(=O)O

Target: glucagon receptor (GCGR)
Experiment: cell-based or functional assay

| EC50, cell-based cyclic AMP (cAMP) activity assay [nM] | Binder |
| --- | --- |
| 126 | HSQGTFTSDYS[Orn]KLDSE[Orn]AQDFVQWLMNTEEK (lactam 13-17) [O12, O18, K13, E17-Lactam-Glucagon-EEK] |
| 93.5 | HSQGTFTSDYS[Orn]YLDS[Orn][Orn]AQDFVQWLMNTEEK [Glucagon-EEK] |
